The test system of one test is E13 chick DRG neurons. As to the kind of experiment: AP fusion protein binding to dissociated E13 chick DRG neurons. The source says: FIG. 1E. Binding of AP fused Amino-Nogo fragments to dissociated E13 chick DRG neurons. Conditioned media from HEK293T cells containing AP fusion protein as indicated were applied to dissociated E13 chick DRG neurons and bound AP was stained.
If these Amino-Nogo fragments are to play a role in regulating neurite outgrowth then they would be expected to bind to neuronal processes. Previously, we have shown that AP-Nogo-66 binds to NgR on DRG processes (Fournier, A. E., et al., Nature 409:341-346 (2001)).

A further test has as its target T1, NgR (Homo sapiens, UniProt Q9BZR6).
T1 construct: expressed in transfected cells; host or cells: COS-7
T1 sequence (Q9BZR6 27-447): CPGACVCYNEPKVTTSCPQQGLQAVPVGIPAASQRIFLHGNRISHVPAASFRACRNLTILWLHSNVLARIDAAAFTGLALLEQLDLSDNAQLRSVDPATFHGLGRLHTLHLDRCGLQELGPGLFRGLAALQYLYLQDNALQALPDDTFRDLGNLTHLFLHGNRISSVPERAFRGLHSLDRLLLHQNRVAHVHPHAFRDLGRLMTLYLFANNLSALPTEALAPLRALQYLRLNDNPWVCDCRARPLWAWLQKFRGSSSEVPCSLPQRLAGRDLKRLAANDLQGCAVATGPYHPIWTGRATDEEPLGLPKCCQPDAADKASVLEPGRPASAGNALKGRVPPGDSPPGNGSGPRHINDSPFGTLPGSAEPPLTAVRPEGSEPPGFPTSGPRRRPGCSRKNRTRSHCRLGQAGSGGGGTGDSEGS
As to the kind of experiment: AP fusion protein binding to NgR expressing COS-7 cells. The following applies: AP fused Amino-Nogo fragments in conditioned media on NgR expressing COS-7 cells; 'No binding at' cells continue on the next line: AmNg A 150 nM; a.a. 1000-1018, a.a. 1005-1018, Amino of NgC 25 nM; a.a. 950-1004 50 nM; Amino of NgB 100 nM. In a few lines: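 Conditioned media from HEK293T cells transfected with AP-fused human Amino-Nogo-A fragments, collected after 7 days, applied to NgR-expressing COS-7 cells. Bound AP stained and quantified by image analysis; saturable binding used to derive Kd.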

For another test, the target named is T2, AP-Lingo-1 (Homo sapiens, UniProt Q96FE5).
T2 construct: made in house; NgR mutants: COS-7
T2 sequence (Q96FE5 40-538 limits assumed): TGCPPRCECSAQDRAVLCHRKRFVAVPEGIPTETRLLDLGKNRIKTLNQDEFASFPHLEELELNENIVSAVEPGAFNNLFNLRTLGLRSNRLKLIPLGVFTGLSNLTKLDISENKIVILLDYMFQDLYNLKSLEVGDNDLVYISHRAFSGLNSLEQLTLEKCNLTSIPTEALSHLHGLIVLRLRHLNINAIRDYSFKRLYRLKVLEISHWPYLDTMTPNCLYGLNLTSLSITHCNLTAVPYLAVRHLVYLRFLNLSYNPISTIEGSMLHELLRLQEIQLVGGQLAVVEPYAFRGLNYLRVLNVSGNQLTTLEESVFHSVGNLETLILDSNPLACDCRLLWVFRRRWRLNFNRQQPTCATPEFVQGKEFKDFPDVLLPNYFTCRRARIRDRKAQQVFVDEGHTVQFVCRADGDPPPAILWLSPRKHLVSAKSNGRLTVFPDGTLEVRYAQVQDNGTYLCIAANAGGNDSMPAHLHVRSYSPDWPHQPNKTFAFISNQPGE
The test is described as follows: Binding of AP-Lingo-1 to COS-7 cells expressing NgR mutants. Details: key: ++: WT level; +: weaker than wild type; trace binding; −: no binding. The conditions noted are these: AP-Lingo-1 10 nM; level of binding compared to wild type NgR. In a few lines:
(§1)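 COS-7 cells expressing Ala-substituted human NgR1 mutants incubated with AP-fused ligands at near-Kd levels (AP-Ng66 5 nM, AP-B4C66 0.5 nM, AP-Lingo-1 10 nM, AP-OMGP 10 nM). Bound AP stained and measured as % of wild-type NgR; graded ++/+/tr/−.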

The subject of another test is AP-MAG. As to the kind of experiment: Binding of AP-MAG to COS-7 cells expressing NgR mutants. The conditions noted are these: AP-MAG 30 nM; level of binding compared to wild type NgR. Also noted: key: ++: WT level; +: weaker than wild type; trace binding; −: no binding.
A further test deals with NgR ligands. The test is described as follows: Binding of alanine substituted NgR mutants to NgR ligands, summary categories. The following applies: AP-Nogo66, AP-B4C, AP-B4C66, AP-Lingo-1, AP-OMgp and AP-MAG; compared to wild type NgR. In a few lines:
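Human NgR1 template; 74 mutants with 1-8 solvent-exposed charged surface residues (within 5 Å) Ala-substituted, plus glycosylation-site mutants and D259N polymorphism. Mutants tested for binding of AP-tagged Nogo66, Amino-Nogo-B4C, B4C66, MAG, OMgp and Lingo-1; each classed as losing all, keeping all, or selective ligand binding.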

The target of the next test is T3, AP-B4C (Homo sapiens, UniProt Q9NQC3).
T3 construct: a.a; 950-1018 (AmNg B4C); made in house; host or cells: AP ligand: HEK293T conditioned medium; NgR mutants: COS-7
T3 sequence (Q9NQC3 950-1018): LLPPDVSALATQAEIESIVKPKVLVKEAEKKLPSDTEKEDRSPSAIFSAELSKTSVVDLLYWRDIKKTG
The test is described as follows: Binding of AP-B4C to COS-7 cells expressing NgR mutants. Also noted: key: ++: WT level; +: weaker than wild type; trace binding; −: no binding. The following applies: AP-B4C 10 nM; level of binding compared to wild type NgR.

For a further test, the system named is AP-OMgp. The test is described as follows: Binding of AP-OMgp to COS-7 cells expressing NgR mutants. The following applies: AP-OMGP 10 nM; level of binding compared to wild type NgR. Details: key: ++: WT level; +: weaker than wild type; trace binding; −: no binding. In a few lines:
as §1

Test [1] deals with T4, AP-fused Amino-Nogo fragment B4C (a.a. 950-1018) (human, UniProt Q9NQC3 950-1018).
T4 construct: also called AmNg B4C; AP-B4C; not shown: alkaline phosphatase (AP), vector pcAP6
T4 sequence: T3 sequence (Q9NQC3 950-1018)
The test is described as follows: AP-ligand binding, COS-7.

Another test addresses T5, AP-Nogo-66 (UniProt Q9NQC3 1055-1120).
T5 construct: domain: Nogo-66; construct described elsewhere (Fournier 2001); also called AP-Ng66; Ng66; not shown: alkaline phosphatase (AP); construct described elsewhere
T5 sequence (looked up): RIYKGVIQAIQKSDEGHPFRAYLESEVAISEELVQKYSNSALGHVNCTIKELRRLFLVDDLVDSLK
As to the kind of experiment: AP-ligand binding, COS-7.

In test [2] the target is T6, AP fusion protein with the B4C fragment of Amino-Nogo-A fused directly to Nogo-66 (human, UniProt Q9NQC3 1055-1120).
T6 construct: domain: Nogo-66; also called AP-B4C66; AP-B4C-66; not shown: alkaline phosphatase (AP), vector pcAP6
T6 sequence: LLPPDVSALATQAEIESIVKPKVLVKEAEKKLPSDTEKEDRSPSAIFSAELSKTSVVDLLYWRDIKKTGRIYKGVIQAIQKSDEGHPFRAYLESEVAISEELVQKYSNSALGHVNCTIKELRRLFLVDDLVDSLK
The test is described as follows: AP-ligand binding, COS-7.

For another test, the target named is T7, AP-Nogo66 (Homo sapiens, UniProt Q9NQC3).
T7 construct: made in house; NgR mutants: COS-7
T7 sequence (Q9NQC3 1055-1120 limits assumed): T5 sequence (looked up)
As to the kind of experiment: Binding of AP-Nogo66 to COS-7 cells expressing NgR mutants. The following applies: AP-Ng66 5 nM; level of binding compared to wild type NgR. Details: key: ++: WT level; +: weaker than wild type; trace binding; −: no binding. Put shortly: as §1

Another test has as its system AP-B4C66. The test is described as follows: Binding of AP-B4C66 to COS-7 cells expressing NgR mutants. Details: key: ++: WT level; +: weaker than wild type; trace binding; −: no binding. The following applies: AP-B4C66 0.5 nM; level of binding compared to wild type NgR. In a few lines: as §1

Residue numbers refer to the chain shown, from its start. No end group written: not given here.

Regarding “IFSAELSKTSVVDLLYWRDIKKTG (not fully specified) [a.a. 995-1018 (Amino-Nogo-A-24), AP fusion protein of Nogo-A aa 995-1018]”, the “binding to DRG axons/neurons” value in the test on E13 chick DRG neurons was “binding to DRG axons”.

B1: a.a. 181-864 (AmNg A): AP fusion protein of human Amino-Nogo fragment A, aa 181-864 of Nogo-A (protein)
chain: SSGSVDETLFALPAASEPVIRSSAENMDLKEQPGNTISAGQEDFPSVLLETAASLPSLSPLSAASFKEHEYLGNLSTVLPTEGTLQENVSEASKEVSEKAKTLLIDRDLTEFSELEYSEMGSSFSVSPKAESAVIVANPREEIIVKNKDEEEKLVSNNILHNQQELPTALTKLVKEDEVVSSEKAKDSFNEKRVAVEAPMREEYADFKPFERVWEVKDSKEDSDMLAAGGKIESNLESKVDKKCFADSLEQTNHEKDSESSNDDTSFPSTPEGIKDRSGAYITCAPFNPAATESIATNIFPLLGDPTSENKTDEKKIEEKKAQIVTEKNTSTKTSNPFLVAAQDSETDYVTTDNLTKVTEEVVANMPEGLTPDLVQEACESELNEVTGTKIAYETKMDLVQTSEVMQESLYPAAQLCPSFEESEATPSPVLPDIVMEAPLNSAVPSAGASVIQPSSSPLEASSVNYESIKHEPENPPPYEEAMSVSLKKVSGIKEEIKEPENINAALQETEAPYISIACDLIKETKLSAEPAPDFSDYSEMAKVEQPVPDHSELVEDSSPDSEPVDLFSDDSIPDVPQKQDETVMLVKESLTETSFESMIEYENKEKLSALPPEGGKPYLESFKLSLDNTKDTLLPDEVSTLSKKEKIPLQMEELSTAVYSNDDLFISKEAQIRETETFSDSSP
modifications: left off: large carriers
notes: AP fusion protein of human Amino-Nogo fragment A, aa 181-864 of Nogo-A
B1: the “binding to DRG axons/neurons” value in the test with E13 chick DRG neurons is “binds to DRG axons”. Besides, in the test with NgR, the “NgR Kd (nM)” value was “No Binding”.

B2: human NgR1 alanine mutant 211, 213, 237, 256, 259, 284 (receptor)
chain: CPGACVCYNEPKVTTSCPQQGLQAVPVGIPAASQRIFLHGNRISHVPAASFRACRNLTILWLHSNVLARIDAAAFTGLALLEQLDLSDNAQLRSVDPATFHGLGRLHTLHLDRCGLQELGPGLFRGLAALQYLYLQDNALQALPDDTFRDLGNLTHLFLHGNRISSVPERAFRGLHSLDRLLLHANAVAHVHPHAFRDLGRLMTLYLFANALSALPTEALAPLRALQYLALNANPWVCDCRARPLWAWLQKFRGSSSAVPCSLPQRLAGRDLKRLAANDLQGCAVATGPYHPIWTGRATDEEPLGLPKCCQPDAADKASVLEPGRPASAGNALKGRVPPGDSPPGNGSGPRHINDSPFGTLPGSAEPPLTAVRPEGSEPPGFPTSGPRRRPGCSRKNRTRSHCRLGQAGSGGGGTGDSEGSGALPSLTCSLTPLGLALVLWTVLGPC
Take B2: in the test with AP-Lingo-1, the Lingo-1 result is given as “++”. Further, the MAG entry with AP-MAG is given as “−”. For the same molecule, in the test on NgR ligands, the “ligand binding category of NgR mutant (Table II)” value is listed as “Differential binding”. In addition, in the test with AP-B4C, the B4C result is listed as “−”. Also, in the test on AP-OMgp, the OMgp entry is reported as “−”. The binding result (in test [1]; with AP-Nogo-66; in test [2]) was “no binding” each time. For the same molecule, the Ng66 entry in the test with AP-Nogo66 was “−”. In the test on AP-B4C66, the B4C-66 result is “−”.

B3: human NgR1 alanine mutant 189, 191, 211, 213, 237, 256, 259, 284 (receptor)
chain: B2 chain with R163A, S165A
For the molecule B3, in the test with AP-Lingo-1, the Lingo-1 entry was “++”. Further, the “ligand binding category of NgR mutant (Table II)” value in the test with NgR ligands was “Differential binding”. Also, the B4C result with AP-B4C is on record as “−”. Also, the OMgp entry in the test on AP-OMgp is given as “−”. The binding result (in [1]; with AP-Nogo-66; in [2]) was “no binding” throughout. In the test with AP-Nogo66, the Ng66 entry is reported as “−”. For the same molecule, the B4C-66 entry with AP-B4C66 is recorded as “−”.
